Target: T1, FLAG-tagged p61 BRAF(V600E/R509H) (Homo sapiens, UniProt P15056 1-168; P15056 381-766)
T1 construct: domain: exons 1-3;domain: exons 9-18; Expressed in 293H cells; also called dimerization-deficient mutant; not shown: FLAG tag
Experiment: co-immunoprecipitation of Flag- and V5-tagged forms from 293H cell lysate (FIG. 2C)
Description: FIG. 2C. To compare levels of dimerization, 293H cells co-expressing FLAG tagged and c-terminal V5-tagged p61BRAF(V600E), full length BRAF(V600E) and the corresponding dimerization-deficient mutants p61 BRAF(V600E/R509H) and BRAF(V600E/R509H) were lysed followed by immunoprecipitation with FLAG antibody. Western blots with V5 or FLAG antibodies were performed as indicated.
The inventors of the present invention then determined whether deletion of exons 4-8 promoted dimerization of p61 BRAF(V600E). To determine levels of dimerization, the inventors ectopically co-expressed two constructs encoding the same protein; either p61 BRAF(V600E) or full-length BRAF(V600E) with different tags (Flag or V5).

B1: V5-tagged p61 BRAF(V600E/R509H) (enzyme, Homo sapiens, UniProt P15056 1-168, looked up)
chain: MAALSGGGGGGAEPGQALFNGDMEPEAGAGAGAAASSAADPAIPEEVWNIKQMIKLTQEHIEALLDKFGGEHNPPSIYLEAYEEYTSKLDALQQREQQLLESLGNGTDFSVSSSASMDTVTSSSSSSLSVLPSSLSVFQNPTDVARSNPKSPQKPIVRVFLPNKQRTVDLIRDQGFRGDGGSTTGLSATPPASLPGSLTNVKALQKSPGPQRERKSSSSSEDRNRMKTLGRRDSSDDWEIPDGQITVGQRIGSGSFGTVYKGKWHGDVAVKMLNVTAPTPQQLQAFKNEVGVLRKTHHVNILLFMGYSTKPQLAIVTQWCEGSSLYHHLHIIETKFEMIKLIDIARQTAQGMDYLHAKSIIHRDLKSNNIFLHEDLTVKIGDFGLATEKSRWSGSHQFEQLSGSILWMAPEVIRMQDKNPYSFQSDVYAFGIVLYELMTGQLPYSNINNRDQIIFMVGRGYLSPDLSKVRSNCPKAMKRLMAECLKKKRDERPLFPQILASIELLARSLPKIHRSASEPSLNRAGFQTEDFSLYACASPKTPIQAGGYGAFPVH
notes: domain: exons 1-3;domain: exons 9-18; Expressed in 293H cells; also called dimerization-deficient mutant; not shown: V5 tag at the C-terminus
binding result: no binding
